Blank lines part the entries; values can stand above or below the molecule they belong to.
How the values were obtained:
[1] = molecular target: Skp1ΔΔ (doubly truncated Dictyostelium Skp1A: Δinternal loop/ΔC-terminus) (Dictyostelium discoideum) (UniProt P52285); assay: AUC
[2] = molecular target: Skp1 (OCP2) (Cavia porcellus) (UniProt P63209); conditions: cited from earlier work
[3] = molecular target: T1, Dictyostelium discoideum Skp1A (Dictyostelium discoideum), P52285; assay: AUC; conditions: remark: other sources report otherwise
T1 chain: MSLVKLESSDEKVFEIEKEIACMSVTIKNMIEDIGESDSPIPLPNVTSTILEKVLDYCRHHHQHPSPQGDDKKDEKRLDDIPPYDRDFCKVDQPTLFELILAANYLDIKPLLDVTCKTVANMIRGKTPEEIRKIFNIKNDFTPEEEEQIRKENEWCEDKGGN

- stoichiometry N [1]: 2
Molecule: Skp1ΔΔ (doubly truncated Dictyostelium Skp1A: Δinternal loop/ΔC-terminus) (from UniProt P52285 1-125) (domain or fragment)

Molecule: Skp1 (OCP2) (from UniProt P63209)
- Kd [2]: 1100 nM

- Kd [3]: 2500 nM
- stoichiometry N [3]: 2
B1: Dictyostelium discoideum Skp1A, P52285 1-162 (natural protein)
chain: T1 chain

— article PMC7521599
